Measurements as given in US20240059797A1 (GRITSTONE BIO, published 2024).
Positions count from the first letter of the chain named. Blank lines part the entries; values can stand above or below the binder they belong to.

Key:
[1] = target: T1, HLA-A*01:01_… (G2) presented on cells (human); assay: flow cytometry, peptide-pulsed K562 cells
T1 construct: whole, on cells; K562 transduced with HLA-A*01:01 and pulsed with peptide, or A375 transduced with a 10x peptide cassette; also called G2 on K562 or A375 cells
Experimental: Cells were harvested, washed in PBS, and stained with eBioscience Fixable Viability Dye eFluor 450 for 15 minutes at room temperature. Following another wash in PBS+2% FBS, cells were resuspended with bispecifics at varying concentrations. Cells were incubated with bispecifics for 1 hour at 4° C. […] After incubating at 4° C. for 45 minutes and washing in PBS+2% FBS, cells were resuspended in PBS+2% FBS and analyzed by flow cytometry. […] All cell lines were stained and analyzed with bispecific binding using the same methods as the K562 cells.
Flow cytometric analysis was performed on the Attune NxT Flow Cytometer (ThermoFisher) using the Attune NxT Software. Data was analyzed using FlowJo.

[2] = target: T2, HLA-A*01:01_… (HLA-PEPTIDE target G2), recombinant biotinylated complex (human, enzymatically biotinylated (BirA)); assay: BLI
T2 construct: also called G2-pHLA

[3] = target: T2, HLA-A*01:01_… (HLA-PEPTIDE target G2), …; assay: BLI (ForteBio Octet HTX), biotinylated G2-pHLA captured on streptavidin SAX biosensor, bispecific in solution, 1:1 Fit
Text: (§1) The biosensors were then dipped in assay buffer for a baseline. […] The biosensors were finally dipped into wells containing assay buffer to measure the dissociation rate for another 50 seconds. Referencing was completed by having a biosensor with no immobilized ligand dipped into analyte. Kinetic data was processed with Octet™ software using a 1:1 kinetic model with errors within 10%, X² below 3, and R² above 0.9.

[4] = target: T2, HLA-A*01:01_… (HLA-PEPTIDE target G2), …; assay: BLI (ForteBio Octet HTX), biotinylated G2-pHLA captured on streptavidin SAX biosensor, bispecific in solution, 1:1 kinetic model
Experimental: (§2) The affinity of wildtype and DSB mutants were analyzed on the ForteBio Octet HTX in 96-channel mode with biolayer interferometry (BLI) detection. […] The biosensors were then dipped in assay buffer for a baseline. […] The biosensors were finally dipped into wells containing assay buffer to measure the dissociation rate for another 50 seconds. Referencing was completed by having a biosensor with no immobilized ligand dipped into analyte. Kinetic data was processed with Octet™ software using a 1:1 kinetic model with errors within 10%, X² below 3, and R² above 0.9.

[5] = target: T2, HLA-A*01:01_… (HLA-PEPTIDE target G2), …; assay: BLI (ForteBio Octet HTX), biotinylated G2-pHLA captured on streptavidin SAX biosensor, bispecific in solution, 1:2 Fit
[6] = target: T2, HLA-A*01:01_… (HLA-PEPTIDE target G2), …; assay: BLI (Octet HTX), biotinylated pHLA on SAX sensor, 1:1 model
Experimental: as §2

[7] = target: T1, HLA-A*01:01_… (G2) presented on cells; assay: flow cytometry, A375 cells expressing the G2 peptide
Experimental: Tumor cells engineered to express target peptide were harvested, washed in PBS, and stained with eBioscience Fixable Viability Dye eFluor 450 for 15 minutes at room temperature. Following another wash in PBS+1-2% FBS, cells were resuspended with the indicated molecules at varying concentrations and incubated for 1 hour at 4° C. After another wash, PE-conjugated goat anti-human IgG secondary antibody (Jackson ImmunoResearch) was added at 1:100 to 1:200 for 30 minutes at 4° C. After washing in PBS+1-2% FBS, cells were resuspended in PBS+1-2% FBS and analyzed by flow cytometry. Flow cytometric analysis was performed on the Attune NxT Flow Cytometer (ThermoFisher) using the Attune NxT Software. Data was analyzed using FlowJo.

[8] = target: T3, HLA-B*35:01_… (HLA-PEPTIDE target G5), recombinant biotinylated complex (human, enzymatically biotinylated (BirA)); assay: BLI (ForteBio Octet HTX), biotinylated G5-pHLA captured on streptavidin SAX biosensor, bispecific in solution, 1:2 Fit
T3 construct: also called G5-pHLA

[9] = target: T4, HLA-B*35:01_… (G5) presented on cells (human); assay: flow cytometry on LN229 cells engineered to express the G5 peptide (LN229-G5-9mer), PE anti-human IgG secondary
T4 construct: whole, on cells; also called G5 on K562 or LN229 cells
Experimental: Cells were harvested, washed in PBS, and stained with eBioscience Fixable Viability Dye eFluor 450 for 15 minutes at room temperature. Following another wash in PBS+2% FBS, cells were resuspended with bispecifics at varying concentrations. Cells were incubated with bispecifics for 1 hour at 4° C. After another wash, PE-conjugated goat anti-human IgG secondary antibody (Jackson ImmunoResearch) was added at 1:100. After incubating at 4° C. for 45 minutes and washing in PBS+2% FBS, cells were resuspended in PBS+2% FBS and analyzed by flow cytometry. Flow cytometric analysis was performed on the Attune NxT Flow Cytometer (ThermoFisher) using the Attune NxT Software. Data was analyzed using FlowJo.

[10] = target: T3, HLA-B*35:01_… (HLA-PEPTIDE target G5), …; assay: BLI (ForteBio Octet HTX), biotinylated G5-pHLA captured on streptavidin SAX biosensor, bispecific in solution, 1:1 Fit
Text: as §1

binding result [1]: binds | binding result [2]: binds
B1: 4-anti-CD3-G2(1H11) (bispecific antibody)
chain: not shown
heavy: QVQLVQSGAEVKKPGASVKVSCKASGYTFTNYYMHWVRQAPGQGLEWMGMINPSGGGTSYAQKFQGRVTMTRDTSTSTVYMELSSLRSEDTAVYYCARGNPWELRLDYWGQGTLVTVSSGGGGSGGGGSGGGGSGGGGSDIQMTQSPSSLSASVGDRVTITCQASQDISNYLNWYQQKPGKAPKLLIYAASSLQSGVPSRFSGSGSGTDFTLTISSLQPEDFATYYCQQYYSYPFTFGPGTKVDIKGGGGSGGGGSEVQLVESGGGLVQPGGSLRLSCAASGFTFSTYAMNWVRQAPGKGLEWVGRIRSKYNNYATYYADSVKGRFTISRDDSKNTLYLQMNSLRAEDTAVYYCVRHGNFGDSYVSWFAYWGQGTLVTVSSASTKGPSVFPLAPSSKSTSGGTAALGCLVKDYFPEPVTVSWNSGALTSGVHTFPAVLQSSGLYSLSSVVTVPSSSLGTQTYICNVNHKPSNTKVDKRVEPKSCDKTHTCPPCPAPELLGGPSVFLFPPKPKDTLMISRTPEVTCVVVDVSHEDPEVKFNWYVDGVEVHNAKTKPREEQYQSTYRVVSVLTVLHQDWLNGKEYKCKVSNKALPAPIEKTISKAKGQPREPQVCTLPPSREEMTKNQVSLSCAVKGFYPSDIAVEWESNGQPENNYKTTPPVLDSDGSFFLVSKLTVDKSRWQQGNVFSCSVMHEALHNRFTQKSLSLSPGK
light: QAVVTQEPSLTVSPGGTVTLTCGSSTGAVTTSNYANWVQQKPGKSPRGLIGGTNKRAPGVPARFSGSLLGGKAALTISGAQPEDEADYYCALWYSNHWVFGGGTKLTVLRTVAAPSVFIFPPSDEQLKSGTASVVCLLNNFYPREAKVQWKVDNALQSGNSQESVTEQDSKDSTYSLSSTLTLSKADYEKHKVYACEVTHQGLSSPVTKSFNRGEC
notes: also called 4-G2(1H11)-αCD3

Kd [3]: 30.3 nM | koff [3]: 0.0277 s⁻¹ | kon [3]: 913000 M⁻¹ s⁻¹ | koff [4]: 0.00397 s⁻¹ | Kd [5]: 1640 nM | koff [5]: 0.324 s⁻¹ | kon [5]: 198000 M⁻¹ s⁻¹ | Kd [6]: 18 nM | EC50 [7]: 9.8 nM
B2: 4-hOKT3-G2(1H11) (bispecific antibody, human IgG1, kappa, N297Q)
chain: not shown
heavy: QVQLVQSGAEVKKPGASVKVSCKASGYTFTNYYMHWVRQAPGQGLEWMGMINPSGGGTSYAQKFQGRVTMTRDTSTSTVYMELSSLRSEDTAVYYCARGNPWELRLDYWGQGTLVTVSSGGGGSGGGGSGGGGSGGGGSDIQMTQSPSSLSASVGDRVTITCQASQDISNYLNWYQQKPGKAPKLLIYAASSLQSGVPSRFSGSGSGTDFTLTISSLQPEDFATYYCQQYYSYPFTFGPGTKVDIKGGGGSGGGGSQVQLVQSGAEVKKPGASVKVSCKASGYTFTRYTMHWVRQAPGQGLEWMGYINPSRGYTNYNQKFKDRVTLTTDKSSSTAYMELSSLRSEDTAVYYCARYYDDHYSLDYWGQGTLVTVSSASTKGPSVFPLAPSSKSTSGGTAALGCLVKDYFPEPVTVSWNSGALTSGVHTFPAVLQSSGLYSLSSVVTVPSSSLGTQTYICNVNHKPSNTKVDKRVEPKSCDKTHTCPPCPAPELLGGPSVFLFPPKPKDTLMISRTPEVTCVVVDVSHEDPEVKFNWYVDGVEVHNAKTKPREEQYQSTYRVVSVLTVLHQDWLNGKEYKCKVSNKALPAPIEKTISKAKGQPREPQVCTLPPSREEMTKNQVSLSCAVKGFYPSDIAVEWESNGQPENNYKTTPPVLDSDGSFFLVSKLTVDKSRWQQGNVFSCSVMHEALHNRFTQKSLSLSPGK
light: DIQMTQSPSSLSASVGDRVTITCSASSSVSYMNWYQQKPGKAPKRLIYDTSKLASGVPSRFSGSGSGTDFTLTISSLQPEDFATYYCQQWSSNPFTFGQGTKLEIKRTVAAPSVFIFPPSDEQLKSGTASVVCLLNNFYPREAKVQWKVDNALQSGNSQESVTEQDSKDSTYSLSSTLTLSKADYEKHKVYACEVTHQGLSSPVTKSFNRGEC
notes: format 4; its Fc may differ; also called 4-G2(1H11)-hOKT3; Format 4 G2(1H11) without the DSB

Kd [8]: 16.1 nM | koff [8]: 0.00652 s⁻¹ | kon [8]: 405000 M⁻¹ s⁻¹ | EC50 (read off the curve) [9]: ~1 nM | Kd [10]: 2.2 nM | koff [10]: 0.00279 s⁻¹ | kon [10]: 1.27e+06 M⁻¹ s⁻¹
B3: 4-G5(1C12)_10AAL hOKT3a (bispecific antibody)
chain: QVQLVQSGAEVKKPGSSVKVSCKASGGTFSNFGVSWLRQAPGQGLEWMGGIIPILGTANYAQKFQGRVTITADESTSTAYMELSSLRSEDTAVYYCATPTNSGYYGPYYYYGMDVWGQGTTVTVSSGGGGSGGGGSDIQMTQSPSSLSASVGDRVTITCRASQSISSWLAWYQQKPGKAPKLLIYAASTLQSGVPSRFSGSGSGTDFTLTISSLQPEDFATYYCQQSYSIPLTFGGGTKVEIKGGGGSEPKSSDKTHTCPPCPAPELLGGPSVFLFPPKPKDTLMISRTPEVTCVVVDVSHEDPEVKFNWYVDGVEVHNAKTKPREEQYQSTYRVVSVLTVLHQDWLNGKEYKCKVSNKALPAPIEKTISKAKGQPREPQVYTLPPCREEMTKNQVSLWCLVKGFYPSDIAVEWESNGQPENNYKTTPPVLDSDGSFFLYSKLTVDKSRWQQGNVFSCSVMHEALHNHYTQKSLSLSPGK
heavy: QVQLVQSGAEVKKPGSSVKVSCKASGGTFSNFGVSWLRQAPGQGLEWMGGIIPILGTANYAQKFQGRVTITADESTSTAYMELSSLRSEDTAVYYCATPTNSGYYGPYYYYGMDVWGQGTTVTVSSGGGGSGGGGSDIQMTQSPSSLSASVGDRVTITCRASQSISSWLAWYQQKPGKAPKLLIYAASTLQSGVPSRFSGSGSGTDFTLTISSLQPEDFATYYCQQSYSIPLTFGGGTKVEIKGGGGSGGGGSQVQLVQSGAEVKKPGASVKVSCKASGYTFTRYTMHWVRQAPGQGLEWMGYINPSRGYTNYNQKFKDRVTLTTDKSSSTAYMELSSLRSEDTAVYYCARYYDDHYSLDYWGQGTLVTVSSASTKGPSVFPLAPSSKSTSGGTAALGCLVKDYFPEPVTVSWNSGALTSGVHTFPAVLQSSGLYSLSSVVTVPSSSLGTQTYICNVNHKPSNTKVDKRVEPKSCDKTHTCPPCPAPELLGGPSVFLFPPKPKDTLMISRTPEVTCVVVDVSHEDPEVKFNWYVDGVEVHNAKTKPREEQYQSTYRVVSVLTVLHQDWLNGKEYKCKVSNKALPAPIEKTISKAKGQPREPQVCTLPPSREEMTKNQVSLSCAVKGFYPSDIAVEWESNGQPENNYKTTPPVLDSDGSFFLVSKLTVDKSRWQQGNVFSCSVMHEALHNRFTQKSLSLSPGK
light: B2 light
notes: format 4 diabody; also called G5(1C12)-hOKT3a Format 4 with shortened linkers

koff [4]: 0.025 s⁻¹ | Kd [6]: 35.1 nM | EC50 [7]: 1750 nM
B4: 4-hOKT3-G2(1H11) with engineered H44/L100 disulfide bond (bispecific antibody, human IgG1, kappa, N297Q)
chain: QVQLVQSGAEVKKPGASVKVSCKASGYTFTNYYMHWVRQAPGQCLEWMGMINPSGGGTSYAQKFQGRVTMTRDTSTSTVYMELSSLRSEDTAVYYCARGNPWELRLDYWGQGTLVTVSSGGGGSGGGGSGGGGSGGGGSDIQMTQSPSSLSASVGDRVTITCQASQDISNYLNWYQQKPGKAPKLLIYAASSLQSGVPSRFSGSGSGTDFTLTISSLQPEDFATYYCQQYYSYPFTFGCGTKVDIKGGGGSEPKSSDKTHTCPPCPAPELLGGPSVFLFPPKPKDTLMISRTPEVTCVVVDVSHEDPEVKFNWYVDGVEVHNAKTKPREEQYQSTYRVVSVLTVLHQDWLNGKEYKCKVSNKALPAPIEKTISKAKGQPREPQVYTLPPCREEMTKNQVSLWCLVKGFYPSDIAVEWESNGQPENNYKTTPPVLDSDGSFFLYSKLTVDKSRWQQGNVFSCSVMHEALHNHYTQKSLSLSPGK
heavy: B2 heavy with G44C, P239C
light: B2 light
notes: also called G2(1H11)-hOKT3_DSBH44/L100 Format 4; G2 Format 4 with the DSB
